Data on one substance can be found in doi:10.1101/2024.05.31.596772.

This assay deals with microtubules (pig (purified from porcine brain)). Briefly: co-sedimentation.

Sequence of CKK dimer (mRFP1-FKBP-CKK and mEGFP-FRB-CKK with rapamycin) (Q80VC9 whole entry, looked up, one chain of several): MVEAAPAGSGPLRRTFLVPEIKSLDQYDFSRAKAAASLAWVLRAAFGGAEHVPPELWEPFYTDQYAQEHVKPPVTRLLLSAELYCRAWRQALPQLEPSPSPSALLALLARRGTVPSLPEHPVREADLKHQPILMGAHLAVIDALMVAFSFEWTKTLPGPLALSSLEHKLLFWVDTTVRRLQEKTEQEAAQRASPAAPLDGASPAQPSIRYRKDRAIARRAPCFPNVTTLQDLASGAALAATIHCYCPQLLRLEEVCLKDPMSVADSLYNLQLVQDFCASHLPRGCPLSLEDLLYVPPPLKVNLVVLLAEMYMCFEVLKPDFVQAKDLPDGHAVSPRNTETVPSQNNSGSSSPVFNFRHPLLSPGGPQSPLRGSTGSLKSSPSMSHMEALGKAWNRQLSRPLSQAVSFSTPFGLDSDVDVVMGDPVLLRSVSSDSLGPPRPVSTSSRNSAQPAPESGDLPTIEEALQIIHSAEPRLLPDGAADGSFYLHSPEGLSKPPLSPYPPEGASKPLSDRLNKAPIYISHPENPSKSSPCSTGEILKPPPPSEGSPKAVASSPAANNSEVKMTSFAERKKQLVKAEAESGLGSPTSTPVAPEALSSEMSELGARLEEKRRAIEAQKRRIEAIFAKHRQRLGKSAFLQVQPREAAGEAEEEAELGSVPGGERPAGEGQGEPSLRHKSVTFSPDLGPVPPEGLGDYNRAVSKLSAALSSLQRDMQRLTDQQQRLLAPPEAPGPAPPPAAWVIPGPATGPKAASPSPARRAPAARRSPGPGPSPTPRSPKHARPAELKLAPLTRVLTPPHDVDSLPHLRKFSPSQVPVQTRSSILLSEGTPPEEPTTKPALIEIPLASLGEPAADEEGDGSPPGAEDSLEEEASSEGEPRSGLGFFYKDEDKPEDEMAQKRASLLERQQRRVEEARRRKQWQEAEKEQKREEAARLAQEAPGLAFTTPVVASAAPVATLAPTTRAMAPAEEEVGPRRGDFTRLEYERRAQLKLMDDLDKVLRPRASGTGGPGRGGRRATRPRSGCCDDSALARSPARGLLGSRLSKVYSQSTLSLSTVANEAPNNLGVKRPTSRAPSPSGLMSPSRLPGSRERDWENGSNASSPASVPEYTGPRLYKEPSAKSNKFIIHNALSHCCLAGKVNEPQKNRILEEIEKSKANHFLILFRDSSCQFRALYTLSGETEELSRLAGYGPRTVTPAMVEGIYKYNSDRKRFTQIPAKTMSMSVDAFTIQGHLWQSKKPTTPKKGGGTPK

Consider “CKK dimer (mRFP1-FKBP-CKK and mEGFP-FRB-CKK with rapamycin) (from UniProt Q80VC9 1112-1246; Q80VC9 1112-1246) (complex)”, for which the Kd (usually the constant that tells how readily two partners part at equilibrium) was 147 nM.
